Molecular target: human C3d (human, UniProt P01024 1002-1303)
Experiment: SPR

human C3d, sequence (P01024 1002-1303): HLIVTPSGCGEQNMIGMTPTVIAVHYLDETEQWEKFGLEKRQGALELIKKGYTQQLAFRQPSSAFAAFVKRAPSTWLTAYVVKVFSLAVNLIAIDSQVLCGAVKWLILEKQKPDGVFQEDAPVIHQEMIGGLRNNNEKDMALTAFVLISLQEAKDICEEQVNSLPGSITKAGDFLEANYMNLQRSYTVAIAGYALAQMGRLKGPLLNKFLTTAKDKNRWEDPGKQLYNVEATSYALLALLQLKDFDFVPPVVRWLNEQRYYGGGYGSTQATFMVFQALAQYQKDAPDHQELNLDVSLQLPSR

B1: (D39)PspCN:FH complex (plasma-derived FH) (complex)
chain 1: EDCNELPPRRNTEILTGSWSDQTYPEGTQAIYKCRPGYRSLGNVIMVCRKGEWVALNPLRKCQKRPCGHPGDTPFGTFTLTGGNVFEYGVKAVYTCNEGYQLLGEINYRECDTDGWTNDIPICEVVKCLPVTAPENGKIVSSAMEPDREYHFGQAVRFVCNSGYKIEGDEEMHCSDDGFWSKEKPKCVEISCKSPDVINGSPISQKIIYKENERFQYKCNMGYEYSERGDAVCTESGWRPLPSCEEKSCDNPYIPNGDYSPLRIKHRTGDEITYQCRNGFYPATRGNTAKCTSTGWIPAPRCTLKPCDYPDIKHGGLYHENMRRPYFPVAVGKYYSYYCDEHFETPSGSYWDHIHCTQDGWSPAVPCLRKCYFPYLENGYNQNYGRKFVQGKSIDVACHPGYALPKAQTTVTCMENGWSPTPRCIRVKTCSKSSIDIENGFISESQYTYALKEKAKYQCKLGYVTADGETSGSITCGKDGWSAQPTCIKSCDIPVFMNARTKNDFTWFKLNDTLDYECHDGYESNTGSTTGSIVCGYNGWSDLPICYERECELPKIDVHLVPDRKKDQYKVGEVLKFSCKPGFTIVGPNSVQCYHFGLSPDLPICKEQVQSCGPPPELLNGNVKEKTKEEYGHSEVVEYYCNPRFLMKGPNKIQCVDGEWTTLPVCIVEESTCGDIPELEHGWAQLSSPPYYYGDSVEFNCSESFTMIGHRSITCIHGVWTQLPQCVAIDKLKKCKSSNLIILEEHLKNKKEFDHNSNIRYRCRGKEGWIHTVCINGRWDPEVNCSMAQIQLCPPPPQIPNSHNMTTTLNYRDGEKVSVLCQENYLIQEGEEITCKDGRWQSIPLCVEKIPCSQPPQIEHGTINSSRSSQESYAHGTKLSYTCEGGFRISEENETTCYMGKWSSPPQCEGLPCKSPPEISHGVVAHMSDSYQYGEEVTYKCFEGFGIDGPAIAKCLGEKWSHPPSCIKTDCLSLPSFENAIPMGEKKDVYKAGEQVTYTCATYYKMDGASNVTCINSRWTGRPTCRDTSCVNPPTVQNAYIVSRQMSKYPSGERVRYQCRSPYEMFGDEEVMCLNGNWTEPPQCKDSTGKCGPPPPIDNGDITSFPLSVYAPASSVEYQCQNLYQLEGNKRITCRNGQWSEPPKCLHPCVISREIMENYNIALRWTAKQKLYSRTGESVEFVCKRGYRLSSRSHTLRTTCWDGKLEYPTCAKR
chain 2: ATENEGSTQAATSSNMAKTEHRKAAKQVVDEYIEKMLREIQLDRRKHTQNVALNIKLSAIKTKYLRELNVLEEKSKDELPSEIKAKLDAAFEKFKKDTLKPGEK
- Kd: 2 µM
